Assay results: the Human Domainome abundance scans (Beltran et al. 2025)
± gives the uncertainty stated by the source.

B1: Zinc finger homeobox protein 3, residues 2244 to 2299; numbered along this chain, Q15911 (parent)
chain: SSRTRFTDYQLRVLQDFFDANAYPKDDEFEQLSNLLNLPTRVIVVWFQNARQKARK

Variants of: B1
Assay: abundance fitness (aPCA) (normalised: wild type 0, dead -1); higher = more abundant; growth selection in yeast, the domain comes from the species named
Settings: Homo sapiens

A22C and A22Y are within error of each other in abundance fitness: -0.156 ± 0.086 for the first, -0.196 ± 0.098 for the second.

Going from A22F to A22W, the abundance fitness rises from -0.353 ± 0.1 to -0.054 ± 0.12.

N37Q and N37M are within error of each other in abundance fitness: -0.12 ± 0.15 for the first, -0.038 ± 0.12 for the second.

First: R5M
Second: R5F
The abundance fitness of the first is higher: 0.478 ± 0.11 for the first, 0.234 ± 0.1 for the second.

N49W and N49C are within error of each other in abundance fitness: -0.252 ± 0.1 for the first, -0.163 ± 0.12 for the second.

N49M and N49I are within error of each other in abundance fitness: -0.287 ± 0.15 for the first, -0.259 ± 0.17 for the second.

Going from N49L to N49P, the abundance fitness falls from -0.334 ± 0.093 to -0.986 ± 0.2.

R3Y and R3C are within error of each other in abundance fitness: 0.301 ± 0.19 for the first, 0.467 ± 0.13 for the second.

Going from Y23G to Y23D, the abundance fitness rises from -0.332 ± 0.068 to -0.018 ± 0.13.

Going from Y23P to Y23A, the abundance fitness rises from -0.749 ± 0.14 to -0.188 ± 0.085.

Y23I and Y23F are within error of each other in abundance fitness: 0.092 ± 0.13 for the first, 0.122 ± 0.14 for the second.

N34G and N34S are within error of each other in abundance fitness: -0.058 ± 0.13 for the first, 0.066 ± 0.16 for the second.

N34M and R55M are within error of each other in abundance fitness: -0.024 ± 0.4 for the first, -0.211 ± 0.16 for the second.

R55C and R55Y are within error of each other in abundance fitness: -0.229 ± 0.12 for the first, -0.073 ± 0.13 for the second.

First: R55S
Second: R55F
The abundance fitness of the first is higher: 0.142 ± 0.075 for the first, -0.069 ± 0.1 for the second.

D26I and D26Q are within error of each other in abundance fitness: 0.038 ± 0.21 for the first, -0.188 ± 0.22 for the second.

D26K and D26T are within error of each other in abundance fitness: -0.1 ± 0.19 for the first, 0.021 ± 0.12 for the second.

L14N and L14E are within error of each other in abundance fitness: -0.953 ± 0.25 for the first, -0.807 ± 0.12 for the second.

L14F and L14D are within error of each other in abundance fitness: -0.768 ± 0.2 for the first, -0.825 ± 0.19 for the second.

First: S2R
Second: S2N
The abundance fitness of the first is lower: -0.299 ± 0.11 for the first, 0.007 ± 0.16 for the second.

T7L and T7C are within error of each other in abundance fitness: -0.363 ± 0.11 for the first, -0.563 ± 0.14 for the second.

T7Y and T7G are within error of each other in abundance fitness: -0.446 ± 0.2 for the first, -0.487 ± 0.074 for the second.

Compared with T7V, T4N is higher in abundance fitness: -0.614 ± 0.094 for the first, 0.211 ± 0.22 for the second.

Going from T4A to T4L, the abundance fitness rises from -0.883 ± 0.17 to -0.116 ± 0.11.

First: T4Y
Second: T4V
The abundance fitness of the first is higher: -0.198 ± 0.28 for the first, -0.634 ± 0.098 for the second.

Compared with V45W, V45C is higher in abundance fitness: -0.136 ± 0.1 for the first, 0.088 ± 0.097 for the second.

E28N and E28F are within error of each other in abundance fitness: -0.39 ± 0.19 for the first, -0.603 ± 0.21 for the second.

E28V and E28S are within error of each other in abundance fitness: -0.142 ± 0.098 for the first, -0.295 ± 0.11 for the second.

Going from L38H to L38S, the abundance fitness rises from -0.967 ± 0.3 to -0.506 ± 0.11.

Compared with L38T, L38R is lower in abundance fitness: -0.166 ± 0.12 for the first, -0.517 ± 0.085 for the second.

L38N and L38P are within error of each other in abundance fitness: -0.76 ± 0.47 for the first, -1.03 ± 0.19 for the second.

L38Y and L38E are within error of each other in abundance fitness: -0.625 ± 0.25 for the first, -0.278 ± 0.11 for the second.

Going from L32R to L32V, the abundance fitness rises from -0.856 ± 0.1 to -0.151 ± 0.083.

First: L32T
Second: L32S
The abundance fitness of the first is higher: -0.497 ± 0.13 for the first, -0.812 ± 0.13 for the second.

Compared with L32A, S1T is higher in abundance fitness: -0.568 ± 0.1 for the first, 0.003 ± 0.27 for the second.

S1M and S1P are within error of each other in abundance fitness: -0.277 ± 0.29 for the first, -0.636 ± 0.36 for the second.

D19S and D19K are within error of each other in abundance fitness: -0.299 ± 0.24 for the first, -0.164 ± 0.27 for the second.

D19C and D19W are within error of each other in abundance fitness: -0.036 ± 0.45 for the first, -0.329 ± 0.25 for the second.

D19Q and D19G are within error of each other in abundance fitness: -0.263 ± 0.23 for the first, -0.414 ± 0.15 for the second.

F47H and F47A are within error of each other in abundance fitness: -0.534 ± 0.12 for the first, -0.729 ± 0.1 for the second.

First: F17P
Second: F17H
The abundance fitness of the first is lower: -1.08 ± 0.23 for the first, 0.245 ± 0.19 for the second.

Compared with F17A, F17D is lower in abundance fitness: 0.17 ± 0.1 for the first, -0.876 ± 0.18 for the second.

First: F17K
Second: W46P
The abundance fitness of the first is higher: 0.011 ± 0.13 for the first, -1.07 ± 0.22 for the second.

W46K and W46V are within error of each other in abundance fitness: -0.764 ± 0.16 for the first, -0.88 ± 0.11 for the second.

W46L and W46C are within error of each other in abundance fitness: -1.09 ± 0.15 for the first, -0.759 ± 0.2 for the second.

P24W and P24A are within error of each other in abundance fitness: -0.381 ± 0.19 for the first, -0.555 ± 0.19 for the second.

R41S and R41F are within error of each other in abundance fitness: 0.021 ± 0.073 for the first, -0.011 ± 0.091 for the second.

K56D and K56R are within error of each other in abundance fitness: -0.026 ± 0.23 for the first, -0.028 ± 0.12 for the second.

K56P and K56T are within error of each other in abundance fitness: 0.004 ± 0.19 for the first, -0.032 ± 0.11 for the second.

First: Q15F
Second: Q15C
The abundance fitness of the first is higher: -0.299 ± 0.17 for the first, -0.668 ± 0.16 for the second.

Q15V and Q15D are within error of each other in abundance fitness: -0.319 ± 0.088 for the first, -0.172 ± 0.15 for the second.

Q15M and N21D are within error of each other in abundance fitness: -0.155 ± 0.13 for the first, -0.306 ± 0.16 for the second.

Going from N21Q to N21W, the abundance fitness falls from -0.26 ± 0.13 to -0.722 ± 0.14.

N21C and T40L are within error of each other in abundance fitness: -0.232 ± 0.16 for the first, -0.105 ± 0.073 for the second.

First: T40G
Second: T40M
The abundance fitness of the first is lower: -0.208 ± 0.077 for the first, 0.073 ± 0.11 for the second.

First: T40K
Second: K53C
The abundance fitness of the first is higher: 0.221 ± 0.13 for the first, -0.029 ± 0.095 for the second.

K53H and K53E are within error of each other in abundance fitness: 0.013 ± 0.081 for the first, 0.162 ± 0.16 for the second.

K53Q and A20T are within error of each other in abundance fitness: -0.109 ± 0.1 for the first, -0.044 ± 0.086 for the second.

Going from A20V to A20R, the abundance fitness rises from -0.249 ± 0.086 to 0.075 ± 0.081.

A20I and A20M are within error of each other in abundance fitness: -0.405 ± 0.21 for the first, -0.268 ± 0.15 for the second.

Q48N and Q48R are within error of each other in abundance fitness: -0.259 ± 0.21 for the first, -0.071 ± 0.09 for the second.

Q48V and Y9D are within error of each other in abundance fitness: -0.066 ± 0.12 for the first, 0.002 ± 0.16 for the second.

Compared with Y9L, Y9A is higher in abundance fitness: -0.216 ± 0.092 for the first, 0.083 ± 0.1 for the second.

Compared with Y9P, S33D is lower in abundance fitness: -0.195 ± 0.14 for the first, -0.833 ± 0.18 for the second.

Compared with S33I, R51S is higher in abundance fitness: -1.08 ± 0.36 for the first, -0.256 ± 0.28 for the second.

F29Q and F29T are within error of each other in abundance fitness: -0.435 ± 0.16 for the first, -0.27 ± 0.13 for the second.

F29P and D8I are within error of each other in abundance fitness: -0.915 ± 0.17 for the first, -0.641 ± 0.25 for the second.

First: D8V
Second: D8G
The abundance fitness of the first is lower: -0.405 ± 0.086 for the first, -0.145 ± 0.1 for the second.

D8M and D8H are within error of each other in abundance fitness: -0.202 ± 0.14 for the first, -0.269 ± 0.33 for the second.

Going from R12G to R12A, the abundance fitness falls from -0.238 ± 0.11 to -0.455 ± 0.081.

R12D and R12Q are within error of each other in abundance fitness: 0.024 ± 0.087 for the first, 0.045 ± 0.1 for the second.

Going from A50L to A50M, the abundance fitness rises from -0.159 ± 0.073 to 0.047 ± 0.12.

A50Q and A50H are within error of each other in abundance fitness: -0.197 ± 0.12 for the first, -0.253 ± 0.095 for the second.

L11S and L11N are within error of each other in abundance fitness: 0.062 ± 0.089 for the first, 0.007 ± 0.19 for the second.

L11E and Q31Y are within error of each other in abundance fitness: 0.038 ± 0.12 for the first, -0.186 ± 0.24 for the second.

Q31H and Q31C are within error of each other in abundance fitness: -0.165 ± 0.21 for the first, -0.031 ± 0.17 for the second.

Going from Q31K to Q31P, the abundance fitness falls from 0.022 ± 0.13 to -0.764 ± 0.24.

Going from F6V to F6P, the abundance fitness falls from -0.21 ± 0.077 to -0.774 ± 0.091.

Compared with F6A, F6I is higher in abundance fitness: -0.678 ± 0.098 for the first, -0.164 ± 0.078 for the second.

First: L36W
Second: L36S
The abundance fitness of the first is lower: -0.811 ± 0.15 for the first, -0.272 ± 0.11 for the second.

First: L36Q
Second: A54G
The abundance fitness of the first is lower: -0.988 ± 0.29 for the first, 0.081 ± 0.26 for the second.

V44T and V44K are within error of each other in abundance fitness: -0.056 ± 0.15 for the first, -0.071 ± 0.16 for the second.

Going from V44G to L35F, the abundance fitness falls from 0.034 ± 0.083 to -0.382 ± 0.25.

With L35I the abundance fitness was 0.067 ± 0.17.
